Assay: protease stability score; higher = more stable; yeast display proteolysis, trypsin and chymotrypsin;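 note: log10 excess protease needed over predicted unfolded state with 0 meaning unfolded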

**Q.** Which protease stability score does the source give for “DEEDERTVKERMKKNNFDELAKNADENARATYGDKTYHGREQVRKAAKDFKDAVDRVKIDSISVHNGTVRMEFTVVINGRHFEMVLYVHVHNGKVQHMEFQATDDKIRKDLKRLQE” here?
**A.** -0.275

**Q.** With “DEEDESRHAEIAIRALAQGDEEELRRQVDPNARVRIGEFNVHGREAAHKAVKTLQEEFDHVDLTHVTTRGEKARVDVKYKKNGKEVTFQLEAKVHDGKVKELQMEKG” as the sequence, how does the protease stability score read?
**A.** -0.241

**Q.** Which protease stability score does the source give for “DEEDFNNAQSMIKDEEQGDEEQITRNLDPNVKIRVGDKRLHGRENYAREVARKARRIRVEVHIRSVSHSGNHIRIDVEVHEQQNGKPDHSRFVVLMHYNNGTVKKAQFDDTD” here?
**A.** 0.103

**Q.** With “DEEDHKKILQKIADVYQRGNPNQQRDLMDENARVVIGNTKFHGREQAMEAAEERRRQVDRIQLTSIDVHGNKFHIRVTLDINGKTVDIHIDVEVHNGKIKDVQVDPRAEKFFKG” as the sequence, how does the protease stability score read?
**A.** 0.202

**Q.** With “DEEDHQKIAHSLAEVLKTGDPDRMMELADENVKFQVGDKTYHGREELKKYMEQLHRHADHIEIDHISVQGDKIRIHARMNVNGREHTFVIQVEIHNGRAKSITFQYG” as the sequence, how does the protease stability score read?
**A.** 1.53

**Q.** Which protease stability score does the source give for “DEEDIAHQWQDKMRTAFKDNDPEQFTQLADEDAKMHVGDTEYHGRDTIMKTLVDEAKRADRITFNVQDFRVNGNNVVVRLEIRMQHNGKEDSKVVRLVFNQSGDDMRLRYAHDG” here?
**A.** 0.338

**Q.** With “DEEDIARQLAEDFRKVLENGDPDEMRKNADKDARLKVGDKQVHGRDEMVKYFEKLNKEYDRVHIHIKSVSAQGDKLRVEIQVVWNSNGKNDKTTYDLVFQHDDGHVKLLEIRES” as the sequence, how does the protease stability score read?
**A.** 0.539

**Q.** For “DEEDIRRIVHEFNRAVQRGNPDDVVRLLDKHAKIVVGEFDVTGREDARKFAEQLRSMADHVTIKSMSVQGDKAHVVIVFDINGKKLTLTFEVQLHNGRVQNLHVDVRDEEEFSRNVG”, which protease stability score is on record?
**A.** 0.782

**Q.** With “DEEDKADQFLRDLRQALQHNDENRMKELADKDARLNVGDKSVQGREQVVEHLVEKAKQVDDIKINIHTIKVHDGRFKFRATFVFNHNGKEESDEIVLVAHESNGKLKLLEVKEG” as the sequence, how does the protease stability score read?
**A.** 1.14

**Q.** With “DEEDKKKLNHTVANVIQHGDEKQARRLMDPNVKVVIGDKTYNGRHKATEALKTLRDRADEIRVHDFRLEGDHINIIIELHINGQQTTLEIEVQFSGDKIKSVVFKTR” as the sequence, how does the protease stability score read?
**A.** 0.795

**Q.** For “DEEDKKRLDTFDDNEDRGDRTKVRELADPNAKYEYGDNTVHGREDLEKMVHHLKNQLRIRVKSVEKRMHNGTLRASQREQQDHNGRPDDNSFDQDVHIHNGRIKQNVVEERK”, which protease stability score is on record?
**A.** -0.15

**Q.** Which protease stability score does the source give for “DEEDKMTELTSRMIQAVRQNDFHKIVDQFDKNVTFEVGDHRVHGRTQAQEWARHLLRRVDHATVNLKHVEVQGDTARVKMQLILDRNGRRETRTVIIEAEIDGDKVRAKKLSIG” here?
**A.** 1.66

**Q.** With “DEEDLDRVESALRTNDPDTLSEMADKDVKVEYGDKSYQGRERFQHFIKQLAHQVDHVEVRSVDKRGDRLKATRVLVINGRSITVVVTIEARNGRIKMLEMSARNESQEKKLVELFQ” as the sequence, how does the protease stability score read?
**A.** 0.941

**Q.** Which protease stability score does the source give for “DEEDLDTVAQTFVTALKQGDPHQVMKLADEDVKATVGDERVHGSQHVNELIKRFRRNVDHVDIEDYRIHNGKIRMRVRLTVNGRTQNLNMVLIVRNGRLKMFKIDPQDVRQFHG” here?
**A.** 0.972

**Q.** With “DEEDLERMQDFMRAINKGDEDRLTKLVDENVHWVVGDKRVHGREQLRKEVDRRREKMSIKFDRVDAHADNGHAVVNIEYNVKHNGQPTSNFVRVQAEATNGKIKEVVVQEDK” as the sequence, how does the protease stability score read?
**A.** -0.279

**Q.** With “DEEDLHHLAREMKDLMQRGDHKRFEELADENARLIIGDKTVTGRTRIKDELRKWREEADHIQIHDVRASGNRINLDIRVVVNGQEHRFIVIIELKNGKVSQMEVEDS” as the sequence, how does the protease stability score read?
**A.** 1.91

**Q.** Which protease stability score does the source give for “DEEDLHNALNAWKAFNTGDPDRAVQLADPNVNVVIGDKHVHGREQLSHEIKRVRHESNVQVRHVNNDNQGEKAKVQAEMVDTQNGQPRTFTVDIDVRAHNGKLKEVKVQEQD” here?
**A.** -0.322

**Q.** Which protease stability score does the source give for “DEEDLHRNMKQMLKDFNTGDPDKIQEQIDPNAKVQVGDTTFHGREEAHRMARDFRHQVDHIQLKEVKVRGNEFEASVVVKYDGKERRFVMQANVHNGKVKKLWFEDK” here?
**A.** 0.063

**Q.** With “DEEDLKEFVKILKEGDPEKLKKMVDENVTIEIGDKRVSGKEKARDLAENFRERVDSHHIHRVDIEGERMVVDVEVSVNGRRIRYTLFAEVHNGKLKQQSVQYTSEEQRKLLTEMWT” as the sequence, how does the protease stability score read?
**A.** 0.3

**Q.** With “DEEDLKHMNENFESGNPDQIVEMFDKDARITVGNKKYRGREDIRKFAEMIRKQVDNRRLKSVEVEGNKFRIQWMFVVNGRRIEAVLHVHAHNGKVKEMSIEVTNPEDQTQYDRDAD” as the sequence, how does the protease stability score read?
**A.** 1.66

**Q.** Which protease stability score does the source give for “DEEDLKKLAKELEKAIKTGDPQKIVDMADPNAKAQIGDKEVHGQENLHEAMQKLSREVDHIEIRSLSIHGEKVELVFVLQVNGRKRTYTVEMTAHNGKITHMTWRHQ” here?
**A.** 0.284

**Q.** Which protease stability score does the source give for “DEEDLKKVVDQLIKAVVNGDVEKIVKYIDEDVEFKLGDTKYKGKEEAKKVVTKLVQVGAEVHVDHVRVKGDEAEVDTVWHIGNTEAHMTVKYVVRGDKVERVEVRWTEEVKKAIKAG” here?
**A.** 1.46

**Q.** For “DEEDLKNQARDFIEALETGDEDQIARLADPDAEADVGDTKYTGREEVREYMKHISDNVDHIQLKDMKVSGNEITIVAVLNVNGHEFDMEIHIELHNGRAKTIRIDPRAINHMTK”, which protease stability score is on record?
**A.** 0.746

**Q.** Which protease stability score does the source give for “DEEDLKRLAETFADALQRNDPSQLNKMIDPNAKVQYGEKTFHGREKLHEWAHEMKKQADHFEIRSITVEGESVVIDLRMIVNGHERRLNLTMHLKNGRIQHLRADSR” here?
**A.** 0.943

**Q.** Which protease stability score does the source give for “DEEDLKRLREMHKAVSRGDPRQIQENMDPNVRVQYGDKTIHGREHIASELITKMKHWRLDFKRYHATVTPNRVQVHIDYIERHNGKPHKNKNKAEAEVDNGKIKRYQQSSDG” here?
**A.** -0.03

**Q.** Which protease stability score does the source give for “DEEDLKRVVDILHQNDPDQMIEMADENVKLEVGDKEFHGREEFSKFQRRIRDAVDHVEVKSLSHHNGRINMTFVLQINGRRIEFSAVVRVHNGKIKSMKVNATNEDDQSRFESQLS” here?
**A.** 0.192

**Q.** Which protease stability score does the source give for “DEEDLKTAHRRQRTNDFDRIRNKADKDAHVQVGDTQVHGREEVKKFMTLLKKRVDHVEIHDIEKKPGRLVVELRMNVNGQEIDLVVMFQFKNGSLKHMRFKVRDEDDKRKLEKALS” here?
**A.** 0.432

**Q.** For “DEEDLKTMFDVMETGDPNQIADQFDKDARVVVGNRRVRGKEHIHTWAHEWRKNVDHQQVDSYEIKGDNARVDMQATINGTRFVFEIIIQVHNGKAKEMELRVRDEEEKKELDEVLE”, which protease stability score is on record?
**A.** -0.026

**Q.** For “DEEDLNKFAEHVVHALQEGNPDQLMHLADENVKMTVGDTSVEGKDQVSEYWTEMKERIDHFSYTSVDVRGNTIEIRFTADVDGRELRQVLIIEVRNGRAKSISIEDG”, which protease stability score is on record?
**A.** 1.88

**Q.** With “DEEDLQKLARSFQENLKTGNPDELMKLFDEDANLHYGDKKVHGREDIRRWADEMRRRVDKVTVLQVDAHGDKMDAVIVQRFDGRDVMISVDAKFHNGRFKEVVYRVRDEEHEKRLHT” as the sequence, how does the protease stability score read?
**A.** 1.38

**Q.** With “DEEDLQRVAEEVARALDTGNPDKFNSLLDKDAKVNYGDKEYTGREELKKLQERIKEHVDHVHVKRVKVEGEKIHLDIEFEVNGRRFRDTIEARVHNGELQKVHVDPNFVRELKQ” as the sequence, how does the protease stability score read?
**A.** 0.842

**Q.** For “DEEDLREIVEEMRTGDEDKFNKNLDENVKVEIGDKTWQGREQAQKMHADVMRRADNVRLKEYEVHNGHVDADLTVEINGRSVEYVMKIEIDNGTMKRIEVTVRDETQEDIQRKVLE”, which protease stability score is on record?
**A.** 0.309

**Q.** With “DEEDLRHLIELMEKGDFSRIADQADEDVRVDIGDKRIHGREQVLTYAEKLSKNIDHVKIQHYHVEGNKLVVDMVIVVNGKDVRATLTAEISNGRLKHMELHATNEEQQTRLKEIIS” as the sequence, how does the protease stability score read?
**A.** 0.871

**Q.** Which protease stability score does the source give for “DEEDLRKQANEVAEMFMHGDPTDAREQFDKHAEVQYGDKVVHGKEQAAQLVKEFRDNVDRVELKRVEAHGDKVTVTVVFTVNGRKVVIVFEMRIHNGKIKSVDAHVTSEELHKRMQD” here?
**A.** 0.155

**Q.** With “DEEDLRTRASEFNKVLENNDPDRLNKLADKDATANYGDHEYHGREDIHHMAETMVRQVDRIEIKHVQARNGRVKVDLIMRVNGKEVKVDVTMEFHNGHLKLVTFDPDQVRKVEG” as the sequence, how does the protease stability score read?
**A.** 0.673

**Q.** Which protease stability score does the source give for “DEEDLSDVLDKMDKAIVRGDEQKLQDLADPNVRAEIGDQKYHGRDAITMFFKVLTEQVDHMRIKTVELQGNKLYIVVSAHFNGQTYDVRFVADAHNGRITRIYVDPQAQKRMEE” here?
**A.** 1.29

From the NTF2 design screens of Basanta et al. (2020)
